Laboratory results: a protein production outcome set (Wang et al. 2014)

Test: label from the status in PepcDB records

Row | Sequence | protein production
1 | MTKANWTLSDARDTYAIEHWSDGYFNIAPEGEVVVCPQRGSVEGGVSIAAIARGVRAEGLSLPVLMRFPHILHDRVRLLTSAFGKARAAYHYGAGYTPVYPIKVNQQRNVIENILRAGGVGLEAGSKSELLAILALAESGTIICNGYKDRAYIRLALIGSRLGLRVFIVVEKLSELELVVSESEALGIAPQLGVRIRLSSISAGKWQNSGGEKSKFGLHAGEILKFLKRLERAGGLGWVRLMHFHMGSQVANINDVKTALREASRYYAELRRLGAPVDHVDVGGGLGIDYEGTHSVSDCSINYSVDEYAHSIVRAFSELCAEQGLPQPDLITEAGRAMSAHHAVLVTNVVDIEAATYDASPVSASVAQPLKDLEDLLRRVDSESVLGIYHDAEFDLAETRTMYVQGKIGLDQLAEAERLHATLCREVQQRLDIRLRAHRAVLDELNERLADKLFCNFSVFQSIPDAWAIDQIFPVMPLQRLGEEPTRRAVIQDMTCDSDGRINAYIDRQSIENTLRMHAPAPGEPYLIGFFLVGAYQEILGDMHNLFGDTHSVDVELDGAGGYTFTHTRRGDGADDLLRYVHIDPDELERSYRKKLIEADIPMHQRKQYESELIAGLSNYTYLEELEHHHHHH | not failed
2 | MALREQWAETAMGVVVLALTAGFLTYSLTVGGVHMKRGDYEISAKFGEAGSLAPGAAVTVAGVKVGTVSQITLEPKTYLAVAKLSIDPTVKLPADSTAKITSDGLLGGAHVAIAPGASLDDLKPGGEIENTQGAVDLFGLIGSVIRPQGGAATTSTPAEANPATQPAESYLEHHHHHH | not failed
3 | IAQIPVSVYWMNKNHVYMGCSNNMVKLLNLNSRYDIVGKTYEDLYHEKSTSYYKKADKIVMDKGISLSLEEPFYCPDGTTKEIYLSNKVPLRDLEGKIIGMLGVSVDIT | failed
4 | MAKSHPRWRLAKKVLTWLFFIAVVVLLVVYAKKVDWGDVWTVIRDYNRTALLSAVGLVIVSYLLYGCYDLLGRLYCGHKLAKRQVMLVSFVCYAFNLTLSTWVGGIGMRYRLYSRLGLPGSTITRIFSLSITTNWLGYILLGGIIFTFGIVQLPDHWYIDAGTLRILGIVLLLIIAVYLWFCAFAKRRHMTIKGQKLVLPSWKFALAQMAISSANWMAMGAIIWLLMGQDVNYFFVLGVLLVSSIAGVIVHIPAGIGVLEAVFLALLAGEHTSQGTIIAALLAYRVLYYFIPLLLALVCYLILESRAKKLRAKNERAMAK | failed
5 | MTPPERVRRKCPQTNTREPIIQEPDTFEPEATRRDAGATESSRANRGWWDRNADDYQVEHGTFLGDDRFVWCPEGLDEVEAELLGPAEDLKGKDVLEIGAGAAQCSRWLAGQGARPVALDLSHRQLQHALRIGGDVPLVEADAGALPFADASFDLACSAYGALPFVADPVRVLREVHRVLRPGGRFVFSVTHPIRWAFPDEPGPEGLSVSASYFDRTPYVEQDEEGGAVYVEHHRTIGDRVRDVVAGGFRLLDVVEPEWPAWNTQEWGGWSPLRGNLIPGTAIFVCVRD | failed
6 | MKVCLQCENFFSSADWACPSCGYQPERLNGIEAHASEFAHGGGGFKPEYFSELSRLEAGNFWFRARNELILWALRTYKPNAGAFLEVGCGTGFVLSGIARACPEIALNGSEIFLAGLFHAAKRVPSTHFMQMDARRVPFVEEFDAIGAFDVLEHIEEDETVLAQLHNAIKPSGVLLLTVPQHPRLWSASDDYACHVRRYTRVEIEQKVLTAGFELLRSSSFVTSLLPVMMLSRVLQKRKTKDFDPAGELKINAALNKVFYGLMMLELAGIRLGMNYPVGGSRLVVAKKQSALEHHHHHH | not failed
7 | MKLIVAIVRPEKLNEVLEALFQAEVRGLTLSRVQGHGGETERVETYRGTTVKMELHEKVRLEIGVSEPFVKPTVEAILKAARTGEVGDGKIFVLPVEKVYRIRTGEEDEAAVTPVQ | not failed
8 | MIIKGRAHKFGDDVDTDAIIPGPYLRTTDPYELASHCMAGIDENFPKKVKEGDVIVAGENFGCGSSREQAVIAIKYCGIKAVIAKSFARIFYRNAINVGLIPIIANTDEIKDGDIVEIDLDKEEIVITNKNKTIKCETPKGLEREILAAGGLVNYLKKRKLIQSKKGVKT | not failed
9 | MIEKILLAVSGLGHAEEMLKTLKEVPSIQSAKVTVLHVVPSQATSSAMTDKWEEGGKILANAIQALNLDPSQVSSILRQGDPKDVVCQVADEIDADLIIMGSRGLKRLQSILSNSVSQYVFQLSSRPMLLVKDDIYVKRIKRVMVAMDNSDAAKHCLNLALFLLRGIVGSQLILANVTTDLRGKTSEVSEISPDKNPVLASAVAEAQRYGIQTRCFTSSGKPGEEICRLADELNVDLLLLGSPDRRPSVAKNFVDIDRLIGASLSDYVRVNASCPVLLARTTG | failed
10 | TEDSLMPEEEFLRRNKGPVSIKVQVPNMQDKTEWKLNGQGLVFTLPLTDQVSVIKVKIHEATGMPAGKQKLQYEGIFIKDSNSLAYYNMASGAVIHLALKER | not failed
